Measured values published in article PMC9528458.

Molecular target: Fzd of the reconstituted xWnt8-Fzd complexes (Fzd4 and FZD5) in nanodiscs

occupancy (percent Wnt-bound Fzd after reconstitution): 30 to 40%
B1: Xenopus laevis Wnt8 (ligand)
chain: AWSVNNFLMTGPKAYLTYSASVAVGAQNGIEECKYQFAWERWNCPESTLQLATHNGLRSATRETSFVHAISSAGVMYTLTRNCSMGDFDNCGCDDSRNGRIGGRGWVWGGCSDNAEFGERISKLFVDGLETGQDARALMNLHNNEAGRLAVKETMKRTCKCHGISGSCSIQTCWLQLAEFRDIGNHLKIKHDQALKLEMDKRKMRSGNSADNRGAIADAFSSVAGSELIFLEDSPDYCLKNISLGLQGTEGRECLQSGKNLSQWERRSCKRLCTDCGLRVEEKKTEIISSCNCKFHWCCTVKCEQCKQVVIKHFCARRERDSNMLNTKRKNRGHRR
